This test deals with authentic E1A 243R protein, purified from bacteria (adenovirus, UniProt P03255-2 1-243). Description: pull-down.

B1: GST-p21 Δ1-80 (domain or fragment)
chain: TGPRRGRDELGGGRRPGTSPALLQGTAEEDHVDLSLSCTLVPRSGEQAEGSPGGPGDSQGRKRRQTSMTDFYHSKRRLIFSKRKP
For B1, the binding result was “binds”.
